Laboratory results: patent US9308238B2, “Compositions and methods for modulating EMT and uses thereof” (Whitehead Institute for Biomedical Research, priority 2010, dated 2016)

Key:
Format in all cases: cell-based, human
[1] = tested on: HMLE^24+ cells; assay: Proliferation in adherent monolayer cultures after 14 day treatment; details: after cessation of 14 day treatment
Excerpt: FIGS. 12A-12F. Concomitant stimulation of Wnt and TGF-beta pathways allows HMLE^24+ cells to enter into a mesenchymal and SC-like state. (FIG. 12A) RT-PCR: SFRP1, L32 was loading control, n=3; SFRP1 mRNA levels in HMLE^24+ stably expressing two hairpin-encoding vectors (shSFRP1a and -b) compared cells expressing a control hairpin targeting GFP (shGFP), HMLE^24+-shSFRP1b were used for iEMT experiments. (FIG. 12B) Flow cytometry: Expression of CD44 and CD24 cell-surface markers in HMLE, HMLE^24+-shGFP and -shSFRP1 cells. […] (FIG. 12F) Growth curves: proliferation of indicated cell lines was monitored by the MTS assay for 3 days, 8 passages after cessation of 14 day treatment as described in (D), n=12.
Proliferation Assays. […] Cell viability was measured using CellTiter-Glo (Promega) according to the manufacturer's instructions.

[2] = tested on: MSP cells; assay: Mammosphere assay, MSP cells
Procedure: FIGS. 3A-3E. Autocrine Signaling controls migration and mammosphere formation.
(§1) Mammosphere and tumorsphere assay. Assays were performed as previously described with modifications (Dontu et al., 2003): 1000 cells/well were seeded in 96-well ultra-low adhesion plates (Corning) in MEGM medium containing 1.3% methylcellulose (Stem Cell Technologies) supplemented with 20 ng/ml EGF, 10 ng/ml bFGF (both Sigma) and B27 (Gibco). Primary spheres were dissociated by trypsinization and replated for secondary sphere formation after a period of 5-7 days.

[3] = tested on: basal MECs; assay: Mammosphere assay, primary basal cells after pre-treatment; details: 5 day pre-treatment, assay without further treatment
Excerpt: (§2) FIGS. 7A-7G. Migratory and self-renewal properties in primary MECs: inhibition and induction. (FIG. 7A) Mammosphere Assay: microscopy images of mammospheres and quantification of mammosphere formation by purified basal, luminal and unsorted MEC populations. Primary spheres were allowed to form over a period of 7 days, dissociated and seeded for secondary sphere formation, n(mammosphere)/1000 cells, n=48, (FIG. 7B) Migration Assay: microscopy images of migrated cells in Boyden Chambers and quantification, n=6. (FIG. 7C) Mammosphere Assay: basal cells were seeded into assay after a 5 day pre-treatment with TGF-beta inhibitors A83-01 and […] (SB43, both inhibitors at 10 μM) as well as recombinant SFRP1 (1 μg/ml), n(mammospheres)/1000 cells, n=6. (FIG. 7D) Migration Assay: basal cells were seeded into migration assays treated after 5 day pre-treatment as described in (C), n=24. (FIG. 7E) Mammosphere Assay: luminal cells were seeded into the assay following a 5 day pre-treatment with TGF-beta 1 (5 ng/ml), Wnt5a (250 ng/ml), anti-E-Cadherin antibody (1 μg/ml) plus anti-DKK1 antibody (10 μg/ml), and a cocktail of all factors added together (iEMT-II), n(mammospheres)/1000 cells, n=24. (FIG. 7F) Migration Assay: luminal cells were seeded into Boyden Chambers following a 5 day pre-treatment as described in (E), n=6. […]

[4] = tested on: basal MECs; assay: Migration assay, primary basal cells after pre-treatment; details: 5 day pre-treatment
Excerpt: as §2

[5] = tested on: primary MECs; assay: Proliferation of primary MECs; details: data not shown
Excerpt: We also undertook to test whether the autocrine loops operating in HTwist and MSP cells enabled basal MECs to maintain their self-renewal and migratory abilities. […] In addition, we blocked autocrine Wnt signaling through application of recombinant SFRP1. After a 5-day, daily treatment with both TGF-beta inhibitors or SFRP1 in monolayer cultures, basal cells were submitted to migration and mammosphere assays in the absence of further treatment.
Primary mammary epithelial cell culture. Single-cell suspensions of primary human mammary epithelial cells (MECs) were generated from reduction mammoplasties of pre-menopausal women as previously described (Stingl et al., 2001), Data from three donors are included in this study. Primary MECs were cultured on collagen I-coated plates (Millipore) in MEGM medium (Lonza) supplemented with 1% Fetal Bovine Serum in a humidified 4% O2, 5% CO2, atmosphere.

[6] = tested on: HTwist and MSP cells; assay: Mammosphere assay, HTwist and MSP cells
Procedure: FIGS. 10A-10E. […] (FIG. 10E) Mammosphere Assay: HTwist and MSP were treated daily during mammosphere formation (5 days) with BMP4 (0.5 μg/ml), SB431542 (10 μM) or a combination of both, n(mammospheres)/1000 cells, n=6.
as §1

[7] = added daily for 5 days (FIG. 3D)

TGF-beta 1: recombinant TGF-beta 1 protein, used at 5 ng/ml
proliferation rates in adherent monolayer cultures [1]: stably lower

B1: SFRP1: Recombinant human SFRP1 protein (R&D Systems), secreted decoy receptor binding canonical and non-canonical Wnt ligands (protein, UniProt Q8N474 32-314, looked up)
Secreted frizzled-related …: SEYDYVSFQSDIGPYQSGRFYTKPPQCVDIPADLRLCHNVGYKKMVLPNLLEHETMAEVKQQASSWVPLLNKNCHAGTQVFLCSLFAPVCLDRPIYPCRWLCEAVRDSCEPVMQFFGFYWPEMLKCDKFPEGDVCIAMTPPNATEASKPQGTTVCPPCDNELKSEAIIEHLCASEFALRMKIKEVKKENGDKKIVPKKKKPLKLGPIKKKDLKKLVLYLKNGADCPCHQLDNLSHHFLIMGRKVKSQYLLTAIHKWDKKNKEFKNFMKKMKNHECPTFQSVFK
reduction of primary mammosphere number [2, 7]: 40%
reduction of secondary sphere formation ([2]; treated during primary sphere formation only): 80%
reduction of mammosphere formation [3]: 80-90%
reduction of motility [4]: 3 fold

B2: BMP4: Recombinant BMP4 protein obtained from Stemgent (protein, UniProt P12644 293-408, looked up)
Bone morphogenetic protein 4: SPKHHSQRARKKNKNCRRHSLYVDFSDVGWNDWIVAPPGYQAFYCHGDCPFPLADHLNSTNHAIVQTLVNSVNSSIPKACCVPTELSAISMLYLDEYDKVVLKNYQEMVVEGCGCR
effect on proliferation of primary MECs [5]: strong anti-proliferative effect
reduction of primary mammosphere formation [6, 7]: 60%
reduction of secondary sphere formation ([6]; both cell lines, treated during primary sphere formation only): 90%
